The text below walks through data of patent publication US7598033B2, “Method and devices for running reactions on a target plate for MALDI mass spectrometry” (University of Pennsylvania, priority 2003, dated 2009).

The nature of experiment [1]: Fluorogenic substrate microarray: tPA on tPA, thrombin and Xa substrates. It is filed as biochemical. As to conditions: aerosol deposition of pure tPA 10 μM. Here is the method:
(§1) Well characterized for over 30 years, serine proteases of the coagulation pathway in plasma were selected as a system in which to monitor the delivery of complex enzyme fluids to the microassay. Fluorogenic substrates in DMSO/glycerol were assayed to a glass slide.
(§2) After spray application, thrombin caused a 65-fold increase in fluorescence activity after conversion of the boc-VPR-MCA substrate. […] Aerosol deposition of pure tPA (10 μM) to a sensing array caused significant cleavage of the tPA, thrombin and Xa substrates, resulting in fluorescence that was 18- to 20-fold above background.

In experiment [2] the test system is fluorogenic substrates on the array. The experiment in a line: Microarray assay of diluted recalcified citrated plasma with added plasmin. It is filed as biochemical, human. Here is the method:
as §1
The microarray detected the modest activation of the coagulation pathway in recalcified diluted plasma due to low level factor Xa and thrombin activity (Butenas, 1997; Rand, 1996). Since corn trypsin inhibitor was not present to inhibit factor XIIa (Rand, 1996), moderate activation of the contact system and kallikrein generation was detected by conversion of the kallikrein substrate.
[…] This plasmin activity was detected by a strong signal in the plasmin substrate spot. […] Plasmin is also a potent activator of factor XU to factor XUa which can in turn convert prekallikrein to kallilkrein.

The nature of experiment [3]: Fluorogenic substrate microarray, aerosol deposition of enzyme: boc-VLK-MCA. Type of experiment: biochemical. As to conditions: pure plasmin 1 μM deposited on the array.
For experiment [4] the following is noted: Morita, 1977; cited from earlier work.
Experiment [5] is described as follows: Fluorogenic substrate microarray: plasmin on thrombin and kallikrein substrates. It is filed as biochemical. Particulars: pure plasmin 1 μM. The procedure:
as §1, §2

B1: tPA: pure tPA delivered by aerosol deposition to a sensing array (protein, UniProt P00750 36-562, looked up)
Tissue-type plasminogen …: SYQVICRDEKTQMIYQQHQSWLRPVLRSNRVEYCWCNSGRAQCHSVPVKSCSEPRCFNGGTCQQALYFSDFVCQCPEGFAGKCCEIDTRATCYEDQGISYRGTWSTAESGAECTNWNSSALAQKPYSGRRPDAIRLGLGNHNYCRNPDRDSKPWCYVFKAGKYSSEFCSTPACSEGNSDCYFGNGSAYRGTHSLTESGASCLPWNSMILIGKVYTAQNPSAQALGLGKHNYCRNPDGDAKPWCHVLKNRRLTWEYCDVPSCSTCGLRQYSQPQFRIKGGLFADIASHPWQAAIFAKHRRSPGERFLCGGILISSCWILSAAHCFQERFPPHHLTVILGRTYRVVPGEEEQKFEVEKYIVHKEFDDDTYDNDIALLQLKSDSSRCAQESSVVRTVCLPPADLQLPDWTECELSGYGKHEALSPFYSERLKEAHVRLYPSSRCTSQHLLNRTVTDNMLCAGDTRSGGPQANLHDACQGDSGGPLVCLNDGRMTLVGIISWGLGCGQKDVPGVYTKVTNYLDWIRDNMRP
For the molecule B1, the “fluorescence above background from cleavage of the tPA, thrombin and Xa substrates” value in experiment [1] is 18- to 20 fold.

B2: plasmin: pure plasmin, serine protease deposited on the array (protein, UniProt P00747 20-580; P00747 581-810, looked up)
Plasmin heavy chain A: EPLDDYVNTQGASLFSVTKKQLGAGSIEECAAKCEEDEEFTCRAFQYHSKEQQCVIMAENRKSSIIIRMRDVVLFEKKVYLSECKTGNGKNYRGTMSKTKNGITCQKWSSTSPHRPRFSPATHPSEGLEENYCRNPDNDPQGPWCYTTDPEKRYDYCDILECEEECMHCSGENYDGKISKTMSGLECQAWDSQSPHAHGYIPSKFPNKNLKKNYCRNPDRELRPWCFTTDPNKRWELCDIPRCTTPPPSSGPTYQCLKGTGENYRGNVAVTVSGHTCQHWSAQTPHTHNRTPENFPCKNLDENYCRNPDGKRAPWCHTTNSQVRWEYCKIPSCDSSPVSTEQLAPTAPPELTPVVQDCYHGDGQSYRGTSSTTTTGKKCQSWSSMTPHRHQKTPENYPNAGLTMNYCRNPDADKGPWCFTTDPSVRWEYCNLKKCSGTEASVVAPPPVVLLPDVETPSEEDCMFGNGKGYRGKRATTVTGTPCQDWAAQEPHRHSIFTPETNPRAGLEKNYCRNPDGDVGGPWCYTTNPRKLYDYCDVPQCAAPSFDCGKPQVEPKKCPGR
Plasmin light chain B: VVGGCVAHPHSWPWQVSLRTRFGMHFCGGTLISPEWVLTAAHCLEKSPRPSSYKVILGAHQEVNLEPHVQEIEVSRLFLEPTRKDIALLKLSSPAVITDKVIPACLPSPNYVVADRTECFITGWGETQGTFGAGLLKEAQLPVIENKVCNRYEFLNGRVQSTELCAGHLAGGTDSCQGDSGGPLVCFEKDKYILQGVTSWGLGCARPNKPGVYVRVSRFVTWIEGVMRNN
modifications: plasmin
notes: pure plasmin, serine protease deposited on the array
In the case of B2, the “signal in the plasmin substrate spot” value in experiment [2] (plasmin 0.43 μM final concentration added to diluted recalcified citrated plasma) is given as “strong signal”. For the same molecule, the “cleavage of substrates on the array” value in experiment [2] (plasmin 2.14-1 μM final concentration added to plasma) was “significant cleavage of each substrate”. In addition, the “signal for the boc-VLK-MCA substrate above background” value in experiment [3] was determined as 25 fold. In experiment [4], the “reported activity on boc-VPR-MCA and Z-FR-MCA” value was “activity”; the “reported activity on tPA and factor Xa substrates” value was “no detectable activity”. In experiment [5], the “activity on the thrombin and kallikrein substrates” value was “detectable activity”.
